Source: the supplement of paper PMC7877785
± gives the uncertainty stated by the source.

Experiment: self-splicing fitness, log relative to wild type (ln ratio); higher = more splicing; Tetrahymena group I intron in knt gene, E. coli kanamycin selection, DiMSum; sequences stand for … in CUCUCU…GGAGGGAAAAGUUAUCAGGCAUGCACCUGGUAGCUAGUCUUUAAACCAAUAGAUUGCAUCGGUUUAAAAGGCAAGACCGUCAAAUUGCGGGAAAGGGGUCAACAGCCGUUCAGUACCAAGUCUCAGGGGAAACUUUGAGAUGGCCUUGCAAAGGGUAUGGUAAUAAGCUGACGGACAUGGUCCUAACCACGCAGCCAAGUCCUAAGUCAACAGAUCUUCUGUUGAUAUGGAUGCAGUUCACAGACUAAAUGUCGGUCGGGGAAGAUGUAUUCUUCUCAUAAGAUAUAGUCGGACCUCUCCUUAAUGGGAGCUAGCGGAUGAAGUGAUGCAACACUGGAGCCGCUGGGAACUAAUUUGUAUGCGAAAGUAUAUUGAUUAGUUUUGGAGUACUCGUGGUCG
Summary of the method: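 A randomised library covering all eight P1ex-region intron nucleotides was built with the intron in the knt kanamycin-resistance gene on pET-22b(+) and held in E. coli BL21(DE3). Cells were grown overnight at 37°C or 30°C on LB agar, with or without 25 μg/mL kanamycin, plus 100 μg/mL carbenicillin, 50 μM IPTG and 0.2% rhamnose, and pooled colonies were amplicon-sequenced on an Illumina HiSeq 2500. DiMSum fitness is the error-weighted combination of wild-type-normalised replicate fold changes, kanamycin versus none.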

Sequence | self-splicing fitness (ln) (30 °C) | self-splicing fitness (ln) (37 °C)
GUCAAGCAAUAUUACGGUGC | -2.35 ± 0.12 | -1.72 ± 0.18
GUCAAGCAAUAUUACGUAGA | -2.04 ± 0.1 | -1.17 ± 0.12
GUCAAGCAAUAUUACGUAGC | -1.55 ± 0.12 | -1.07 ± 0.15
GUCAAGCAAUAUUACGUCGC | -3.74 ± 0.21 | -2.13 ± 0.19
GUCAAGCAAUAUUACGUCGG |  | -1.88 ± 0.18
GUCAAGCAAUAUUACGUGGA | -2.86 ± 0.17 | -1.58 ± 0.12
GUCAAGCAAUAUUACGUGUA | -1.8 ± 0.062 | -0.887 ± 0.072
GUCAAGCAAUAUUACGUUUA | -1.92 ± 0.096 | -0.845 ± 0.091
GUCAAGCAAUAUUACGUUUG |  | -3.38 ± 0.2
GUCCAGCAAUAUUACGAACA | -1.83 ± 0.15 | -0.801 ± 0.12
GUCCAGCAAUAUUACGAAGC | -0.345 ± 0.072 | -0.167 ± 0.085
GUCCAGCAAUAUUACGAAGG | -1.34 ± 0.24 | -1.66 ± 0.28
GUCCAGCAAUAUUACGAAUG | -2.65 ± 0.17 | -1.31 ± 0.15
GUCCAGCAAUAUUACGACCC | -0.218 ± 0.18 | 0.168 ± 0.21
GUCCAGCAAUAUUACGAUUU | -0.323 ± 0.064 | 0.653 ± 0.067
GUCCAGCAAUAUUACGCACG | -2.07 ± 0.21 | -0.825 ± 0.13
GUCCAGCAAUAUUACGCGCA | -0.0872 ± 0.1 | 0.23 ± 0.11
GUCCAGCAAUAUUACGCGGA | -3.96 ± 0.25 | -4.4 ± 0.46
GUCCAGCAAUAUUACGGCCA | -0.678 ± 0.13 | -0.279 ± 0.14
GUCCAGCAAUAUUACGGUUU | -0.181 ± 0.052 | 0.389 ± 0.064
GUCCAGCAAUAUUACGUAAA | -0.484 ± 0.081 | 0.338 ± 0.12
GUCCAGCAAUAUUACGUAGA | -0.646 ± 0.064 | -0.201 ± 0.086
GUCCAGCAAUAUUACGUAGC | -0.399 ± 0.062 | -0.149 ± 0.075
GUCCAGCAAUAUUACGUCAA | -1.23 ± 0.12 | -1.99 ± 0.14
GUCGAGCAAUAUUACGAGCA | -1.76 ± 0.3 | 

Sequence | self-splicing fitness (ln) (30 °C) | self-splicing fitness (ln) (37 °C)
GUCGAGCAAUAUUACGAUGG | -3.01 ± 0.28 | -1.85 ± 0.18
GUCGAGCAAUAUUACGCAUC | -2.31 ± 0.26 | -0.574 ± 0.22
GUCGAGCAAUAUUACGCCAG |  | -2 ± 0.43
GUCGAGCAAUAUUACGCCCG | -2.96 ± 0.48 | -2.03 ± 0.4
GUCGAGCAAUAUUACGCUCU | -1.61 ± 0.24 | -1.39 ± 0.23
GUCGAGCAAUAUUACGCUGC |  | -1.97 ± 0.48
GUCGAGCAAUAUUACGGAAG | -3.26 ± 0.26 | -2.35 ± 0.28
GUCGAGCAAUAUUACGGCCA | -1.28 ± 0.36 | -0.721 ± 0.27
GUCGAGCAAUAUUACGGCGG |  | -2.67 ± 0.41
GUCGAGCAAUAUUACGGCUG | -2.54 ± 0.25 | -1.7 ± 0.39
GUCGAGCAAUAUUACGGUGA | -2.64 ± 0.15 | -1.91 ± 0.2
GUCGAGCAAUAUUACGUGCC | -2.63 ± 0.29 | 
GUCGAGCAAUAUUACGUGGC | -3.63 ± 0.2 | -1.09 ± 0.17
GUCGAGCAAUAUUACGUGUG | -0.922 ± 0.12 | -0.585 ± 0.17
GUCGAGCAAUAUUACGUUAG | -2.95 ± 0.27 | -1.2 ± 0.2
GUCGAGCAAUAUUACGUUGA | -2.98 ± 0.16 | -3.79 ± 0.34
GUCGAGCAAUAUUACGUUGG | -1.9 ± 0.16 | -2.95 ± 0.47
GUCUAGCAAUAUUACGAGUA | -1.19 ± 0.21 | -1.39 ± 0.22
GUCUAGCAAUAUUACGAUAC | 0.218 ± 0.22 | -0.815 ± 0.22
GUCUAGCAAUAUUACGAUGU | -1.11 ± 0.074 | 0.257 ± 0.086
GUCUAGCAAUAUUACGAUUG |  | -2.14 ± 0.26
GUCUAGCAAUAUUACGCACG | -1.27 ± 0.18 | -1.14 ± 0.18
GUCUAGCAAUAUUACGCAUG | -0.786 ± 0.1 | -0.64 ± 0.16
GUCUAGCAAUAUUACGCUAA | -0.815 ± 0.091 | 0.163 ± 0.093
GUCUAGCAAUAUUACGGCAA | -1.61 ± 0.25 | 0.441 ± 0.17

Sequence | self-splicing fitness (ln) (30 °C) | self-splicing fitness (ln) (37 °C)
GUCUAGCAAUAUUACGGGGU | -3.56 ± 0.19 | -2.04 ± 0.13
GUCUAGCAAUAUUACGUAAG | -1.02 ± 0.099 | -0.654 ± 0.13
GUCUAGCAAUAUUACGUGAU | -1.04 ± 0.09 | -0.766 ± 0.1
GUCUAGCAAUAUUACGUGCG | -1.76 ± 0.11 | -1.27 ± 0.12
GUCUAGCAAUAUUACGUGGG | -2.01 ± 0.12 | -1.64 ± 0.16
GUCUAGCAAUAUUACGUGGU | -2.5 ± 0.09 | -0.907 ± 0.078
GUCUAGCAAUAUUACGUUAA | -0.894 ± 0.097 | -0.331 ± 0.094
GUGAAGCAAUAUUACGACAA | 0.0822 ± 0.12 | 0.396 ± 0.16
GUGAAGCAAUAUUACGACGA | 0.184 ± 0.15 | 0.158 ± 0.22
GUGAAGCAAUAUUACGAGGC | -2.59 ± 0.25 | -1.1 ± 0.22
GUGAAGCAAUAUUACGAUCC | -3.08 ± 0.31 | 0.244 ± 0.18
GUGAAGCAAUAUUACGAUUG | -1.38 ± 0.11 | -1.78 ± 0.14
GUGAAGCAAUAUUACGCAAC | -2.59 ± 0.17 | -2.08 ± 0.22
GUGAAGCAAUAUUACGCACA | 0.0998 ± 0.15 | 0.512 ± 0.18
GUGAAGCAAUAUUACGCACG | -0.996 ± 0.12 | -0.777 ± 0.13
GUGAAGCAAUAUUACGCAUA | -0.646 ± 0.15 | -0.0533 ± 0.17
GUGAAGCAAUAUUACGCCGC | -2.25 ± 0.16 | -1.5 ± 0.26
GUGAAGCAAUAUUACGCCUG | -0.422 ± 0.091 | 0.015 ± 0.13
GUGAAGCAAUAUUACGCGUA | -0.298 ± 0.14 | 0.0699 ± 0.14
GUGAAGCAAUAUUACGCUCU | -1.79 ± 0.12 | -0.652 ± 0.13
GUGAAGCAAUAUUACGGAUA | -1.37 ± 0.096 | -1.13 ± 0.1
GUGAAGCAAUAUUACGGCCG | -1.03 ± 0.13 | -0.435 ± 0.17
GUGAAGCAAUAUUACGGCGC | -0.501 ± 0.17 | -0.89 ± 0.14
GUGAAGCAAUAUUACGGGAC | -1.8 ± 0.12 | -0.623 ± 0.13
GUGAAGCAAUAUUACGGUAA | -0.519 ± 0.073 | -0.169 ± 0.1

Sequence | self-splicing fitness (ln) (30 °C) | self-splicing fitness (ln) (37 °C)
GUGAAGCAAUAUUACGUAUC | -1.08 ± 0.059 | 0.384 ± 0.068
GUGAAGCAAUAUUACGUCAC |  | -2.47 ± 0.48
GUGAAGCAAUAUUACGUCAU | -3.04 ± 0.2 | -2.68 ± 0.28
GUGAAGCAAUAUUACGUCUA | 0.147 ± 0.049 | 0.251 ± 0.066
GUGAAGCAAUAUUACGUGUG | -0.934 ± 0.089 | -0.737 ± 0.11
GUGAAGCAAUAUUACGUUAU | -1.15 ± 0.08 | -1.2 ± 0.11
GUGAAGCAAUAUUACGUUCA | -1.45 ± 0.078 | -0.809 ± 0.09
GUGAAGCAAUAUUACGUUCU | -0.0481 ± 0.072 | -0.218 ± 0.086
GUGAAGCAAUAUUACGUUGA | -1.56 ± 0.078 | -0.398 ± 0.093
GUGCAGCAAUAUUACGACAU | -0.587 ± 0.013 | -0.143 ± 0.032
GUGCAGCAAUAUUACGACCC | -0.76 ± 0.13 | 0.132 ± 0.18
GUGCAGCAAUAUUACGAGAU | -3.67 ± 0.2 | -1.98 ± 0.19
GUGCAGCAAUAUUACGAGUU | -2.49 ± 0.15 | -1.62 ± 0.15
GUGCAGCAAUAUUACGCCAA | -1.41 ± 0.14 | -1.72 ± 0.14
GUGCAGCAAUAUUACGCUCG | -0.5 ± 0.091 | -0.883 ± 0.13
GUGCAGCAAUAUUACGGGAA | -3.67 ± 0.25 | -1.9 ± 0.13
GUGCAGCAAUAUUACGGGGG | -4.19 ± 0.23 | -2.58 ± 0.18
GUGCAGCAAUAUUACGUAUU | -1.7 ± 0.1 | -1.78 ± 0.12
GUGCAGCAAUAUUACGUUCA | 0.191 ± 0.072 | -0.181 ± 0.081
GUGGAGCAAUAUUACGAACU | -0.836 ± 0.28 | -1.14 ± 0.42
GUGGAGCAAUAUUACGACAU | -2.402 ± 0.022 | -1.48 ± 0.038
GUGGAGCAAUAUUACGAGUC |  | -2.24 ± 0.31
GUGGAGCAAUAUUACGCAAU | -1.83 ± 0.1 | -1.25 ± 0.13
